Test results from patent US12624096B2, “Anti-tau antibodies and methods of use thereof” (GTInvent Limited, priority 2020, dated 2026).
“Also recorded” adds a separate entry of the source.

Tests used:
[1] = molecular target: dGAE (Homo sapiens, UniProt P10636); experiment: Thioflavin T dGAE aggregation inhibition assay; assay type: biochemical; settings: 10 μM test protein; 100 μM dGAE, 10 mM DTT, 24 h
Description: By incubating 100 μM dGAE and 10 mM DTT at 37° C., on a thermomixer at 700 rpm for 24 hours, “pathology mimicking” aggregates which have the morphology of paired helical filaments are formed. This aggregation can be quantified by adding a final concentration of 12.5 μM Thioflavin T (fluorescent dye) which binds to fibril-like β-sheets. Fluorescence was measured with a constant emission wavelength of 480 nm and a scanning excitation wavelength of 350-470 nm using a Varian Cary Eclipse fluorescence spectrophotometer. Maximal fluorescence measurements were used as an indicator of dGAE aggregation (approximately 450 nm excitation). The assay was optimised using a range of S1D12 scAb concentrations (0.04 to 25 µM) and tested for levels of aggregation inhibition as shown in FIG. 35.
Based on FIG. 35, 10 μM scAb was deemed an adequate concentration to compare and rank individual scAb-mediated dGAE aggregation inhibition events. […] A similar inhibition (40%) was seen using 10 μM bovine serum albumin as a negative control (data not shown).

[2] = system: plasma tau; experiment: Plasma tau (Simoa) in L66+/- mice treated with LMTM; assay type: in vivo, mouse
Description: The effect of the tau aggregation inhibitor LMTM on the levels of plasma tau in a L66^+/− mouse line was investigated with two assays, both utilising the 3-step Simoa® protocols described above. Using the human specific NT1 assay (BT2 capture with Tau12 detection), low levels of tau (0.41±0.09 pg/ml) were detected in the plasma of 5-month-old L66^+/− that were treated with vehicle control solution (FIG. 50A). At the same time, an increase in tau levels was measured in the plasma of L66^+/− mice that had received an oral administration of LMTM (15 mg/kg) during the time period (1.28±0.11 pg/ml).
This hypothesis was supported by our core-proline antibody assay in which S1D12 antibody coated capture beads and BT2 detector was used (FIG. 50B). This assay detects both human and mouse tau which explains the higher levels of tau detected.

[3] = molecular target: T1, dGAE aggregates (Homo sapiens, UniProt P10636); experiment: Epitope occlusion sandwich ELISA (423 mAb capture) of dGAE aggregated with/without LMTM; assay type: binding; settings: LMTM 1:5 ratio
T1 sequence (P10636 614-708): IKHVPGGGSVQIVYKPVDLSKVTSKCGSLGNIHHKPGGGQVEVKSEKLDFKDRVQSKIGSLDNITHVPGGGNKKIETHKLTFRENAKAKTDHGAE
Description: During dGAE aggregation in vitro, scAb binding regions on dGA/dGAE are ‘hidden’ or ‘occluded’ which leads to a loss of immunoreactivity in aggregation samples. Here we have shown the occlusion of binding regions in aggregated dGAE samples and the recovery of immunoreactivity in the presence of LMTM, a tau-aggregation inhibitor. For preparing the aggregates, 10 μl 10 mM DTT was added to 1000 μl 100 μM dGAE and agitated with/without LMTM (1:5 ratio) at 700 rpm for 24 h at 37° C. […] The pellet was then resuspended in half the original volume for further experiments. […] Doubling dilutions of dGAE aggregate ‘total’, ‘supernatant’ and ‘pellet’ samples at 10 μg/ml starting concentration were added to designated wells in doubling dilutions in 1×PBS, dGAE monomer (non-aggregated) was included as assay control. All double dilutions were done in final volumes of 100 μl. This was left to incubate on lab bench for 1 h followed by the addition of test scAbs at 10 μg/ml. Anti-HuCk HRP labelled secondary antibody was added as described previously and ELISA data generated is represented using the graph below.

[4] = Pharmacokinetic study of S1D12 mAb, single dose, plasma and brain (dGAE ligand binding ELISA); assay type: in vivo, mouse; settings: single dose 30 mg/kg i.p., NMRI mice
Description: For the PK study, a total of 42 female NMRI mice (Swiss-type mouse, Naval Medical Research Institute) aged 6 months were allocated into six groups according to sample collection time (Table 30 for group size). Animals were injected intraperitoneally with S1D12 (30 mg/kg) and sacrificed 24-, 48-, 72-hours and 7-, 14- and 31-days after injection to collect blood and brain samples. A control group was also included in which animals were sacrificed to collect blood and brain, but no test item was administered.
Blood samples were centrifuged to obtain plasma at 2000×g for 5 min at 6° C., and samples were stored at −20° C. After blood collection, each mouse was perfused with heparinized saline for 2-3 minutes and the entire brain removed rapidly and snap frozen in liquid nitrogen and stored at −80° C.
Briefly, dGAE (1 μg/mL) was used to coat ELISA plates and blocked with 2% Marvel. […] Following washing, HRP-conjugated anti-mouse IgG as detector was added, and the assay developed using TMB solution as normal. The absorbance at 450 nm was read using a Clariostar plate reader (BMG Labtech) and MARS Clariostar software used to calculate S1D12 concentration from a standard curve.
Average values from each group (representing a time point) was plotted (FIG. 10) and the in vivo half-life, Cmax and Tmax calculated by performing a non-compartmental analysis of the plasma data using the PKSolver2.0 software (FIG. 51, Table 31). […] Here a higher coating concertation of dGAE at 10 μg/ml was used to compete off antibody binding to tau present in the brain.

[5] = system: plasma tau; experiment: Plasma tau (Simoa) after S1D12 immunotherapy; assay type: in vivo, mouse; set-up: plasma tau, core and proline region pairing (S1G2-BT2) / plasma tau, proline region pairing (BT2-HT7): unit not given here
Description: (§1) In a six-week repeat-dose study, a total of 12 WT, 12 Line 1 (L1) and 12 Line 66 homozygotes (L66+/*) female mice aged 2-months at the beginning of the study were used (Table 32 for group size). Mice in each genotype were injected intraperitoneally (i.p.) with either vehicle or S1D12 (30 mg/kg), once per week, for six consecutive weeks.
Three-step assays were performed and analysed as per previously described plasma screening methods in this document.

[6] = molecular target: T1, dGAE aggregates; experiment: Sandwich ELISA on SDS/Triton X-100 treated dGAE aggregates; assay type: binding; settings: S1D12 mAb capture, S1G2 scAb detection; SDS + Triton X-100 treated
Description: For aggregation, 1000 μL 100 μM dGAE+10 μL 10 mM DTT was added to a ‘LoBind’ microfuge tubes and agitated at 700 RPM/37° C., for 24 hours. Resulting sample centrifuged at 17,000×g/4° C., for 60 min and supernatant discarded to remove left over monomer. Pellet resuspended in half the original volume for future experiments and hereafter referred to as ‘aggregates’. 1 μl of aggregates was added to 1 ml of PBS and SDS was added to a final concentration of 1% (w/v). This was left to incubate on lab bench for 1 h with gentle agitation every 15 minutes. In order to neutralise the SDS effect on ELISA, Triton X-100 added to a final concentration of 3% (v/v) and mixed gently by pipetting to prevent any bubble formation. […] Similarly aggregates treated with only SDS or Triton X-100, untreated aggregates, dGAE monomers treated with only SDS or SDS+Titon X-100 were also added to designated wells as controls. All samples were then double diluted across the plate in final volumes of 100 μl. The final column was left with no protein to act as a blank. This was allowed to stand at room temperature for 1 hour followed by the addition of detection scAb-S1G2 at 10 μg/ml. Anti-HuCk HRP labelled secondary antibody was added as described previously and ELISA data generated was represented using the graph below. In addition, limits of detection (LoD) of various core binding antibody pairing for SDS Triton X-100 treated dGAE aggregates were calculated using the above describe ELISA method and substituting capture mAbs and detection scAbs as shown in Table 30.

[7] = Six-week repeat-dose study, S1D12 mAb in plasma and brain; assay type: in vivo, mouse
Description: as §1
Mice treated with S1D12 were culled seven days after the last dosing whereas vehicle-treated animals were sacrificed the following day, i.e. 8 days post-treatment. Mice were anaesthetized using an overdose of sodium pentobarbital administered intraperitoneally for blood collection. Blood was transferred to plastic vials containing lithium heparin anticoagulant, centrifuged to obtain the plasma and the entire brain was removed as described previously. Plasma and brain samples (stored at −20° C., and −80° C., respectively) were subjected to further biochemical analysis.

[8] = molecular target: aggregated dGAE (Homo sapiens, UniProt P10636); experiment: Capture ELISA ranking of mAbs on dGAE aggregates; assay type: binding; settings: 1 μg/ml capture mAb, 800 nM aggregated dGAE
Sequence of aggregated dGAE (P10636 614-708): as above
Description: The aggregation cascade of natively unfolded tau into insoluble filaments is a defining pathological feature of AD. Therefore, it is logical to target aggregated tau filaments for both therapeutic and diagnostic purposes. The following experiment was performed to assess the ability of our dGA mAb panel to bind aggregated dGAE using a capture ELISA method. Aggregates were prepared by incubating 100 μM dGAE and 10 mM dTT for 24 h at 37° C. with shaking at 700 RPM. The following day, dGAE aggregates were centrifuged at 17,000×g for 20 min and the supernatant was removed. The remaining pellet was washed with 10 mM phosphate buffer and centrifuged as above. Washing was repeated a further two times to remove any remaining dGAE monomer. The dGAE pellet was resuspended in 100 μl of 10 mM phosphate buffer. (Using a separate capture ELISA based quantification, we have worked out the efficiency of our dGAE aggregation as 80%)
For assessing the mAb panel for aggregate binding, designated rows of a maxisorp plate were coated with 1 μg/ml of each of the capture mAbs (S1D12, S1G2, CA4, NS2A1, CE2, E2E8 and CB7) and blocked as before. Following washing, 800 nM aggregated dGAE was added to the designated wells, double diluted across the plate and incubated for 1 h at RT. The plate was washed again and 1 μg/ml S1G2 scAb was added as detection antibody and incubated for 1 h at RT. To the row where S1G2 mAb was used for capture, […] s1D12 scAb was added as […] instead of S1G2. The assay was developed using HRP labelled HuCK as described previously.

[9] = molecular target: T2, human tau (Homo sapiens, UniProt P10636, G652D/P618S); experiment: Western blot ratio of human to mouse tau in L66+/+ brain after 6-week S1D12 mAb therapy; assay type: in vivo; settings: L66+/+ mice, 30 mg/kg i.p. weekly for 6 weeks vs vehicle, S1G2 detection
T2 construct: sample A with 5 nM full length human tau (hT40); from tissue; host or cells: brain homogenate of L66+/+ transgenic mice expressing the human tau transgene
T2 sequence (P10636 1-441 isoform P10636-8 P301S/G335D): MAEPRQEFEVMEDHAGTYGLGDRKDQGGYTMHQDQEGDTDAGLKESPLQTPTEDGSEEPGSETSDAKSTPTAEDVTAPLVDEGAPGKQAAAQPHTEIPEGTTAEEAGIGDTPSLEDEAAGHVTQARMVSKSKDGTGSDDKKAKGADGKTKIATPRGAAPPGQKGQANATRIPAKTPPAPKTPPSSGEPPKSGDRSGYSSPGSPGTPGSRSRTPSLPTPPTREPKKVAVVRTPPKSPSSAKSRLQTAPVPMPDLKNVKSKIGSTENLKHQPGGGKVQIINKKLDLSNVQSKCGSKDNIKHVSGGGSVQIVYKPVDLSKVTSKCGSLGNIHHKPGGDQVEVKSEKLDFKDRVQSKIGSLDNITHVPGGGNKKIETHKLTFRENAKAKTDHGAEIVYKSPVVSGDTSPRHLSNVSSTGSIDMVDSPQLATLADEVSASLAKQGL
Description: as §1
A hemisphere of each Line 66^+/+ mouse brain was suspended in RIPA buffer and homogenised. Samples were left on ice for 1 hour and subsequently centrifuged for 10 minutes at 10,000×g at 4° C. The supernatant was collected, and the total protein was quantified using a BCA Protein Assay Kit. Brain homogenate supernatant from each mouse was separated via sodium dodecyl sulphate polyacrylamide gel electrophoresis (SDS-PAGE) with MES running buffer. […] Following washing, the secondary antibody, sheep anti-mouse IgG-HRP, was added, and the membrane was washed five times with PBST and developed with Clarity Western ECL Substrate and read using a BioSpectrum Gel imaging System (UVP). Results were analysed using ImageJ-Fiji (NIH, Version 1.53) where densitometric analysis was performed and the ratio of human to mouse tau densities was calculated.

Sequence of dGAE (P10636 614-708): as the sequence (P10636 614-708) above

bovine serum albumin: negative control protein in thioflavin T assay [reference compound]
inhibition of dGAE aggregation [1]: 40%

CN(C)c1ccc2c(c1)Sc1cc(N(C)C)ccc1N2.CS(=O)(=O)O.CS(=O)(=O)O [LMTM]
plasma tau, NT1 assay (BT2 capture with Tau12 detection) ([2]; 5-month-old L66+/- mice, oral LMTM 15 mg/kg): 1.28 ± 0.11 pg/mL
plasma tau, core-proline assay (S1D12 capture beads, BT2 detector) ([2]; L66+/- mice, LMTM 15 mg/kg): 142.08 ± 12.08 pg/mL
effect of LMTM on dGAE aggregation and immunoreactivity [3]: preventing the aggregation event, leading to an increased immunoreactivity

B1: S1D12 mAb: S1D12 reformatted as mAb, heavy chain SEQ ID NO: 445, light chain SEQ ID NO: 446 (antibody)
heavy: QVQLQESGPSLVKPSQTLSLTCTVSGFSLNNNAVGWVRQAPGKVPESLVGCSSDGTCYYNSALKSRLDITRDTSKNQISLSLSSVTTDDAAVYYCTRGHYSIYGYDYLGTIDYWGPGLLVTVSSAKTTAPSVYPLAPVCGDTTGSSVTLGCLVKGYFPEPVTLTWNSGSLSSGVHTFPAVLQSDLYTLSSSVTVTSSTWPSQSITCNVAHPASSTKVDKKIEPRGPTIKPCPPCKCPAPNLLGGPSVFIFPPKIKDVLMISLSPIVTCVVVDVSEDDPDVQISWFVNNVEVHTAQTQTHREDYNSTLRVVSALPIQHQDWMSGKEFKCKVNNKDLPAPIERTISKPKGSVRAPQVYVLPPPEEEMTKKQVTLTCMVTDFMPEDIYVEWTNNGKTELNYKNTEPVLDSDGSYFMYSKLRVEKKNWVERNSYSCSVVHEGLHNHHTTKSFSRTPGK
light: QAVLTQPSSVSGSLGQRVSITCSGSSSNVGGGNSVGWYQHLPGSGLKTIIYDTNSRPSGVPDRFSGSRSGNTATLTINSLQAEDEGDYYCVTGDSTTHDDLVGSGTRLTVLGGQPKSSPSVTLFPPSSEELETNKATLVCTITDFYPGVVTVDWKVDGTPVTQGMETTQPSKQSNNKYMASSYLTLTARAWERHSSYSCQVTHEGHTVEKSLSRADCS
modifications: S1D12 mAB Heavy Chain; S1D12 mAB Light Chain
Tmax in the brain [4]: 48 h
Cmax ([4]; read-out: Cmax in the brain): 6.2 nM
difference in plasma tau vs vehicle, S1G2-BT2 ([5]; L1 and wildtype mice): not statistically significant
plasma tau, core and proline region pairing (S1G2-BT2) ([5]; L66+/+ mice, S1D12 mAb 30 mg/kg weekly for 6 weeks): 1438±275
increase in plasma tau vs vehicle, S1G2-BT2 ([5]; L66 mice): more than a threefold increase
plasma tau, proline region pairing (BT2-HT7) ([5]; L66 mice, S1D12 mAb 30 mg/kg weekly for 6 weeks): 127±55
dGAE aggregates detectable in sandwich ELISA [6]: approximately 2 ng/ml
increase in S1D12 concentration in plasma following repeat dosing ([7]; WT mice, 30 mg/kg once per week for 6 weeks vs single dose, 7 days post dose): > 3 fold
plasma S1D12 antibody crossing the blood brain barrier ([7]; WT, L1 and L66+/+ mice, 30 mg/kg weekly for 6 weeks): 0.15-0.3%
ability to capture aggregated dGAE [8]: most efficient at capturing aggregated dGAE
ratio of human tau to mouse tau in brain [9]: A decrease in the ratio of human tau to mouse tau; also recorded: A decrease in the levels of human tau was observed
